Source: paper PMC11429640

Target: high-stability mutant of the MMP-9 catalytic domain (MMP9CAT*) lacking the fibronectin-like domain (human) (UniProt P14780)
Experiment: enzyme activity inhibition assay (fluorogenic substrate, fit to the Morrison equation); apparent Ki (Ki^app); varying concentrations of N-TIMP2 incubated with 0.26 nM MMP-9CAT* for 60 min at 37 °C in 50 mM Tris-HCl, 0.15 M NaCl, 10 mM CaCl2, 0.02% Brij-35 pH 7.5; then 7.5 µM fluorogenic substrate; at least three assays for each protein

Chain of UniProt P14780 (P14780 other isoform, or with tags, fused parts or gaps mutant): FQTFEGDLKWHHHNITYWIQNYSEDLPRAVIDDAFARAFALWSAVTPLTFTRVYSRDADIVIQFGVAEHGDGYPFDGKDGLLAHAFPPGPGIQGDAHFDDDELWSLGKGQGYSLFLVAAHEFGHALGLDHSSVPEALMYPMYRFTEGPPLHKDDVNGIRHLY

Ki: 320 pM
Substance: WT N-TIMP2 containing internal FLAG-tag, c-myc-tag, and His-tag (domain or fragment)
